Measurements: the supplement of paper PMC10724198
± gives the standard deviation of the averaged measurements.

Columns and labels:
Saccharomyces cerevisiae [1] = test: protein stability index of tFT-peptide fusion (C-terminal peptide) (PSI (0-1 scale)); higher = more stable (slower turnover)
Protocol: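 MPS profiling in S. cerevisiae of the tFT-X12 degron library: putative degron peptides plus stable controls, 12 aa, fused to the C-terminus of a sfGFP-mCherry timer. Cells are FACS-sorted into 8 mCherry/sfGFP bins and deep-sequenced. PSI runs from 0 (unstable) to 1 (stable). Backgrounds are wild type, das1Δ and doa10Δ at 30 °C, and wild type, das1Δ, cdc34-1 and cdc53-1 at 37 °C; 2-3 technical replicates each.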

Saccharomyces cerevisiae [2] = test: as above; settings: genetic background: wild type; temperature: 30 C
[3] = genetic background: cdc34-1, temperature: 37 C
[4] = genetic background: cdc53-1, temperature: 37 C
[5] = genetic background: das1 deletion, temperature: 30 C
[6] = genetic background: das1 deletion, temperature: 37 C
[7] = genetic background: doa10 deletion, temperature: 30 C
[8] = genetic background: wild type, temperature: 30 C
[9] = genetic background: wild type, temperature: 37 C
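Further: PSI is a weighted mean of sequencing reads over stability bins, variants kept only with over 10 reads, mCherry proximal and sfGFP distal, peptide attached via GGGS linker.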

Sequence | protein stability index (Saccharomyces cerevisiae [1]; [3]) | protein stability index (Saccharomyces cerevisiae [1]; [4]) | protein stability index (Saccharomyces cerevisiae [1]; [5]) | protein stability index (Saccharomyces cerevisiae [1]; [6]) | protein stability index (Saccharomyces cerevisiae [1]; [7]) | protein stability index (Saccharomyces cerevisiae [1]; [8]) | protein stability index (Saccharomyces cerevisiae [1]; [9]) | protein stability index (Saccharomyces cerevisiae [2])
RNTLLFKRILHI | 0.671 ± 0.028 | 0.706 ± 0.017 | 0.637 ± 0.032 | 0.77 ± 0.018 | 0.0865 ± 0.024 | 0.108 ± 0.045 | 0.154 ± 0.0032 | 0.165 ± 0.059
WLVCAGWVVLSC | 0.153 ± 0.0026 | 0.2052 ± 0.00049 | 0.187 ± 0.023 | 0.2772 ± 0.0018 | 0.175 ± 0.0096 | 0.175 ± 0.026 | 0.222 ± 0.016 | 0.265 ± 0.033
LAGLVRFWGCVG | 0.622 ± 0.022 | 0.7111 ± 0.0023 | 0.656 ± 0.015 | 0.748 ± 0.019 | 0.122 ± 0.019 | 0.141 ± 0.03 | 0.236 ± 0.0026 | 0.341 ± 0.0037
PSIALVRLDVIC | 0.383 ± 0.0059 | 0.471 ± 0.0073 | 0.32 ± 0.038 | 0.46 ± 0.004 | 0.297 ± 0.011 | 0.327 ± 0.031 | 0.443 ± 0.0051 | 0.392 ± 0.017
PLTSPLLFPVFA | 0.272 ± 0.044 | 0.338 ± 0.029 | 0.269 ± 0.024 | 0.376 ± 0.0081 | 0.219 ± 0.011 | 0.267 ± 0.017 | 0.381 ± 0.033 | 0.376 ± 0.015
WLYPVFKISYCV | 0.492 ± 0.0089 | 0.533 ± 0.024 | 0.357 ± 0.032 | 0.5131 ± 0.0049 | 0.282 ± 0.0049 | 0.33 ± 0.021 | 0.464 ± 0.017 | 0.381 ± 0.014
GVAILFTFFRLL | 0.228 ± 0.086 | 0.526 ± 0.0023 | 0.456 ± 0.025 | 0.612 ± 0.02 | 0.0564 ± 0.016 | 0.0756 ± 0.0073 | 0.0737 ± 0.012 | 0.159 ± 0.022
NWAIEIRSVKIV | 0.642 ± 0.066 | 0.701 ± 0.022 | 0.619 ± 0.04 | 0.7084 ± 0.007 | 0.148 ± 0.0038 | 0.183 ± 0.021 | 0.303 ± 0.015 | 0.261 ± 0.025
SPCLSWTLVLVL | 0.275 ± 0.013 | 0.324 ± 0.0061 | 0.215 ± 0.026 | 0.407 ± 0.0077 | 0.195 ± 0.0034 | 0.203 ± 0.016 | 0.345 ± 0.0051 | 0.302 ± 0.037
FERVEYEVLGIG | 0.35 ± 0.0065 | 0.441 ± 0.037 | 0.394 ± 0.0079 | 0.449 ± 0.017 | 0.395 ± 0.012 | 0.38 ± 0.017 | 0.44 ± 0.021 | 0.415 ± 0.014
KSRLFCFVYFLL | 0.333 ± 0.011 | 0.413 ± 0.013 | 0.311 ± 0.032 | 0.501 ± 0.007 | 0.137 ± 0.0024 | 0.141 ± 0.02 | 0.17 ± 0.0063 | 0.167 ± 0.013
FFASAAVHLVTC | 0.513 ± 0.01 | 0.521 ± 0.032 | 0.435 ± 0.02 | 0.559 ± 0.014 | 0.312 ± 0.0063 | 0.34 ± 0.016 | 0.491 ± 0.0037 | 0.4533 ± 0.0034
HWVRLSSLAFVS | 0.2245 ± 0.0018 | 0.289 ± 0.011 | 0.289 ± 0.036 | 0.233 ± 0.0082 | 0.202 ± 0.022 | 0.183 ± 0.014 | 0.1895 ± 0.00075 | 0.176 ± 0.01
VFFSLSLILFPF | 0.431 ± 0.037 | 0.5265 ± 0.0017 | 0.412 ± 0.022 | 0.525 ± 0.024 | 0.3557 ± 0.00081 | 0.402 ± 0.019 | 0.4897 ± 0.0017 | 0.419 ± 0.013
GGICVVAYWRLA | 0.4654 ± 0.0011 | 0.518 ± 0.006 | 0.388 ± 0.034 | 0.564 ± 0.01 | 0.0948 ± 0.013 | 0.105 ± 0.021 | 0.173 ± 0.0065 | 0.198 ± 0.025
SFFSQAIPILAA | 0.0333 ± 0.0079 | 0.039 ± 0.0039 | 0.152 ± 0.027 | 0.115 ± 0.015 | 0.129 ± 0.0039 | 0.15 ± 0.021 | 0.0837 ± 0.023 | 0.225 ± 0.072
MSRALSVLVVVA | 0.176 ± 0.029 | 0.211 ± 0.011 | 0.213 ± 0.036 | 0.323 ± 0.0062 | 0.172 ± 0.0091 | 0.22 ± 0.019 | 0.287 ± 0.029 | 0.312 ± 0.012
SGRFRFVLLGLV | 0.558 ± 0.032 | 0.601 ± 0.008 | 0.455 ± 0.03 | 0.632 ± 0.00071 | 0.122 ± 0.023 | 0.156 ± 0.023 | 0.253 ± 0.0054 | 0.203 ± 0.021
CFVLVVCIPVMV | 0.2 ± 0.0041 | 0.247 ± 0.033 | 0.198 ± 0.023 | 0.3457 ± 0.0017 | 0.18 ± 0.009 | 0.207 ± 0.024 | 0.3279 ± 0.0019 | 0.31 ± 0.035
